Experimental data from patent publication US20240108651A1 (THOMAS JEFFERSON UNIVERSITY, published 2024).

T1: human desmoglein 2 (Dsg2) on cells (human, UniProt Q14126 50-1118)
T1 construct: whole, on cells; also called huma Dsg2; hDsg2
T1 sequence (looked up): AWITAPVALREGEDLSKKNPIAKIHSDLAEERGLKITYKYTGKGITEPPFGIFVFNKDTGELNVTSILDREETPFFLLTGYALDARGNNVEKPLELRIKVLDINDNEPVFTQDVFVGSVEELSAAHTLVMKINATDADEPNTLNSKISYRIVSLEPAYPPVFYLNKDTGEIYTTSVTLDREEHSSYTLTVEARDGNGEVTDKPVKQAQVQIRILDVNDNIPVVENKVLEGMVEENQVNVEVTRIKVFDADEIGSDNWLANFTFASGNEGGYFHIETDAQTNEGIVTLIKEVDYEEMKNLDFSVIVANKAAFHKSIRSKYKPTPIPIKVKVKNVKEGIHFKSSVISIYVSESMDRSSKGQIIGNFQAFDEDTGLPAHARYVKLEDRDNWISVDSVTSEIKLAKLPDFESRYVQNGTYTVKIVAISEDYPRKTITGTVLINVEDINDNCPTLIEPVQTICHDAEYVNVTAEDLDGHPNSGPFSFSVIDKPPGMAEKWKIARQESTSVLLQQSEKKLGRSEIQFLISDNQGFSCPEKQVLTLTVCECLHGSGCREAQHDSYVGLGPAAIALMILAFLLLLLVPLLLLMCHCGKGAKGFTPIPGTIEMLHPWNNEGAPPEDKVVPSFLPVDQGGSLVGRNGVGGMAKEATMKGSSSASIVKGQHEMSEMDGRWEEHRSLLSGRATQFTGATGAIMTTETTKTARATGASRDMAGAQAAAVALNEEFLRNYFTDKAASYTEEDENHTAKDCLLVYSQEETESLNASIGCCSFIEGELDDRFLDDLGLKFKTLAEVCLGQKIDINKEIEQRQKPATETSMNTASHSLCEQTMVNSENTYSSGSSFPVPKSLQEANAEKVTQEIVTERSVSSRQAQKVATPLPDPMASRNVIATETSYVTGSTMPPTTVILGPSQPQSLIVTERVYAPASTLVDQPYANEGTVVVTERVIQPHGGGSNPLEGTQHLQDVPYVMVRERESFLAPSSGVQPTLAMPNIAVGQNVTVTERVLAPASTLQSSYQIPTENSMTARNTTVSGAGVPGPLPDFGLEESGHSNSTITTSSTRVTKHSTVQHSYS

B1: mAb 6D8 (antibody, V domains shown)
VH: QIQLVQSGPELKKPGETVKISCKASGYTFTNYGMNWVKQAPGRGLKWMGWINTYTGNPTYADDFKGRFDFSLETSASTAYLQINNLKNEDMAIYFCARDRGNSFDYWGQGTTLTVSS
VL: DIQMTQSPASLSVSVGETVTITCRASENIYSNLAWYQQKQGKSPQLLVYIAINLADGVPSRFSGSGSGTQYSLKINSLQSEDFGNYYCQHFWGTPRTFGGGTKLEIK
notes: Monoclonal antibody from a hybridoma; also called 6D8 Antibody; 6D8 mAb
B2: mAb 10D2 (antibody, V domains shown)
VH: EVQLQQSGPELVNPGASVKMSCKASGYSFTSYILHWVKQKPGQGLEWIGYINPYNDATKYNEKFKGKATLTSDKSSSTAYMELSSVTSEDSAVYYCCSMITTAYWAYWGQGTLVTVSA
VL: NIMMTQSPSSLTVSAGEKVTMSCKSSQSILYGSTQKNYLAWYQQKPGQSPKLLIYWASTRESGVPDRFTGSGSGTDFTLTISSVQAEDLAVYYCHQYLSSYTFGGGTKLEIK
notes: Monoclonal antibody from a hybridoma; also called 10D2 Antibody; 10D2 mAb

Target: T1, human desmoglein 2 (Dsg2) on cells
Test: legend of FIG. 5: Dsg2 domain scheme; immunoblot and immunostaining of A431 SCC cells
Excerpt: P, Pro-region; EC, Extracellular Domain; TM, Transmembrane; IA, Intracellular Anchoring, ICS, Intracellular Cadherin Segment; LD, Linker Domain; RUD, Repeat Unit Domain; TD, Terminal Domain. 10D2 recognizes EC1 while 6D8 recognizes EC4. For FIG. 5B and FIG. 5C, A431 SCC was immunoblotted (FIG. 5B) or immunostained (FIG. 5C) with mAbs 6D8 and 10D2.

Binder	binding result
B1	binds
B2	binds
